Measurements reported in patent US20220275098A1.

Target: CD30 (analyte in SPR) (UniProt P28908)
Assay: SPR, 25° C. pH 7.4, scFv captured on chip, CD30 as analyte, average value

Sequence of CD30 (analyte in SPR) (P28908 19-379 limits assumed): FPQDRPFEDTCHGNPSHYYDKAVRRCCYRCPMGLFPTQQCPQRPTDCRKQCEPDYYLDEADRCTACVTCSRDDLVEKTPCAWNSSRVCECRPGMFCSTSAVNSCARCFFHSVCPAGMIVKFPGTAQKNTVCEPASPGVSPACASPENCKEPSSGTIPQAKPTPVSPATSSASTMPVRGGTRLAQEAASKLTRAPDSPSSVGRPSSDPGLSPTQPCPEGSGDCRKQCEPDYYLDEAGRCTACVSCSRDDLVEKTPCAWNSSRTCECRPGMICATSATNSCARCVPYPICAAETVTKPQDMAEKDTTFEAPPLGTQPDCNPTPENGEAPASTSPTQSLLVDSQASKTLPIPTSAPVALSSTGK

B1: anti-CD30 clone 52-2 scFv (scFv, part only; not given: Linker, domain order, tag, V domains shown, not shown: another chain or arm of the molecule; small tags and cut ends)
VH: EVQLVESGGGLVQPGGSLRLSCAASGFTFSSYYMHWVRQAPGKGLEWVSAISWSGGSTYYADSVKGRFTISRDNSKNTLYLQMNSLRAEDTAVYYCARDRFMPFIPNTLGFDVWGQGTLVTVSS
VL: DIQMTQSPSSLSASVGDRVTITCQASQDISNYLNWYQQKPGKAPKLLIYVASNLETGVPSRFSGSGSGTDFTFTISSLQPEDIATYYCQQDADVPLTFGQGTKVEIK
  Kd: 800 pM
